Data published in the supplement of paper PMC7877785.
± gives the uncertainty stated by the source.

Test: self-splicing fitness, log relative to wild type (ln ratio); higher = more splicing; Tetrahymena group I intron in knt gene, E. coli kanamycin selection, DiMSum; sequences stand for … in CUCUCU…GGAGGGAAAAGUUAUCAGGCAUGCACCUGGUAGCUAGUCUUUAAACCAAUAGAUUGCAUCGGUUUAAAAGGCAAGACCGUCAAAUUGCGGGAAAGGGGUCAACAGCCGUUCAGUACCAAGUCUCAGGGGAAACUUUGAGAUGGCCUUGCAAAGGGUAUGGUAAUAAGCUGACGGACAUGGUCCUAACCACGCAGCCAAGUCCUAAGUCAACAGAUCUUCUGUUGAUAUGGAUGCAGUUCACAGACUAAAUGUCGGUCGGGGAAGAUGUAUUCUUCUCAUAAGAUAUAGUCGGACCUCUCCUUAAUGGGAGCUAGCGGAUGAAGUGAUGCAACACUGGAGCCGCUGGGAACUAAUUUGUAUGCGAAAGUAUAUUGAUUAGUUUUGGAGUACUCGUGGUCG
Method in brief: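 A randomised library covering all eight P1ex-region intron nucleotides was built with the intron in the knt kanamycin-resistance gene on pET-22b(+) and held in E. coli BL21(DE3). Cells were grown overnight at 37°C or 30°C on LB agar, with or without 25 μg/mL kanamycin, plus 100 μg/mL carbenicillin, 50 μM IPTG and 0.2% rhamnose, and pooled colonies were amplicon-sequenced on an Illumina HiSeq 2500. DiMSum fitness is the error-weighted combination of wild-type-normalised replicate fold changes, kanamycin versus none.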

Sequence	self-splicing fitness (ln) (30 °C)	self-splicing fitness (ln) (37 °C)
AAUCAGCAAUAUUACGUUAU	-0.401 ± 0.041	0.272 ± 0.062
AAUCAGCAAUAUUACGUUUA	-0.652 ± 0.045	-0.106 ± 0.06
AAUGAGCAAUAUUACGAAAU	-2.14 ± 0.28	-1.36 ± 0.34
AAUGAGCAAUAUUACGAAGC	-3.08 ± 0.35	-1.89 ± 0.43
AAUGAGCAAUAUUACGAUGC	-2.44 ± 0.21	
AAUGAGCAAUAUUACGCCCU	-1.32 ± 0.12	-1.16 ± 0.17
AAUGAGCAAUAUUACGCGAU	-3.63 ± 0.41	-0.995 ± 0.22
AAUGAGCAAUAUUACGCGGC	-2.15 ± 0.19	-2.11 ± 0.24
AAUGAGCAAUAUUACGCGGG	-3.11 ± 0.3	-2.57 ± 0.25
AAUGAGCAAUAUUACGCUAA	-3.1 ± 0.36	-1.9 ± 0.2
AAUGAGCAAUAUUACGCUCG	-2.31 ± 0.25	-0.585 ± 0.18
AAUGAGCAAUAUUACGCUGU	-1.84 ± 0.34	-2.21 ± 0.4
AAUGAGCAAUAUUACGCUUC		-1.71 ± 0.23
AAUGAGCAAUAUUACGGAAA	-2.99 ± 0.48	-1.86 ± 0.31
AAUGAGCAAUAUUACGGACG	-2.44 ± 0.2	
AAUGAGCAAUAUUACGGAUA	-1.86 ± 0.27	-1.8 ± 0.37
AAUGAGCAAUAUUACGGAUC	-2.24 ± 0.3	-0.974 ± 0.3
AAUGAGCAAUAUUACGGCCA		0.411 ± 0.39
AAUGAGCAAUAUUACGGCCU	-1.17 ± 0.17	-1.47 ± 0.21
AAUGAGCAAUAUUACGGCGC	-1.82 ± 0.089	-1.09 ± 0.11
AAUGAGCAAUAUUACGGGUC	-2.57 ± 0.37	
AAUGAGCAAUAUUACGGUCG	-2.26 ± 0.14	-1.62 ± 0.2
AAUGAGCAAUAUUACGUACG	-3 ± 0.26	-2.32 ± 0.24
AAUGAGCAAUAUUACGUCCA	-2.41 ± 0.19	-2.27 ± 0.3
AAUGAGCAAUAUUACGUUAG	-3.2 ± 0.21	-2.3 ± 0.25
AAUUAGCAAUAUUACGAACU	0.296 ± 0.1	0.321 ± 0.14
